Laboratory results taken from patent US5973116.

The substances below were run against human placental alkaline phosphatase (hPLAP) (human) (UniProt P05187) (assay: ELISA plate with bound antigen, washed with copious amounts of 50 mM DEA).
In the case of H17-Link-BSRNaseKDEL, the percent washed off with 50 mM DEA is reported as 40%.
Work on H17-BSRNaseKDEL yielded a percent washed off with 50 mM DEA of 40%.
In the case of H17-BSRNase, the percent washed off with 50 mM DEA is reported as 40%.
single-chain H17E2 antibody (scFv) was tested, and the percent washed off with 50 mM DEA was over 90%.
